Assay results taken from the RNAGym collection of RNA variant scans (doi:10.1073/pnas.2313332121).

B1: TPR t1 (parent)
chain: GACCAAUCUGCCCUCAGAGCUCGAGAACAUCUUCGGAUGCAGAGGAGGCAGGCUUCGGUGGCGCGAUAGCGCCAACGUCCUCAACCUCCAAUGCAUCCCACCACAUGAUGAUGCCUGAAGAGCCUUGGUUUUUUG

Variants of: B1
Assay: polymerase ribozyme fitness, log enrichment relative to wild type (log ratio); higher = more active; in vitro selection for triplet polymerase activity
Procedure, shortened: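 Both subunits of a heterodimeric triplet polymerase ribozyme were given their own mutant library, built by PCR and transcribed. Each library was annealed with a biotinylated primer, the partner subunit and triplets, incubated frozen at −7 °C, and its extended constructs gel-excised, captured on streptavidin beads and amplified by RT-PCR, all in one round done in triplicate. Fitness is the logarithm of genotype enrichment relative to wild-type enrichment, with replicates averaged by inverse-variance weighting. That logarithm is base 2, and Illumina-sequenced genotypes needed ≥10 input reads and ≥1 read per output.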

Row | Variant | polymerase ribozyme fitness (log ratio)
1 | GACCAAUCUGCCCUCAGAGCUCGAGAACAUCUUCGGAUGCAGAGGAGGCAGGCUUCGGUGGCGCGAUAGCGCCAACGUCUUCAUCCUCUAAUGCAUCCCACCACAUGAUGAUGCCUGAGGAGACUUGGUUUUUUG [C80U A84U C89U A119G C123A] | 0.318
2 | GACCAAUCUGCCCUCAGAGCUCGAGAACAUCUUCGGAUGCAGAGGAGGCAGGCUUCGGUGGCGCGAUAGCGCCAACGUCUUCAACCUCCAAUGCAUCCCACCACAUGAUGAUGCCUGAACAGCCUUGGUUUUUUG [C80U G120C] | 0.704
3 | GACCAAUCUGCCCUCAGAGCUCGAGAACAUCUUCGGAUGCAGAGGAGGCAGGCUUCGGUGGCGCGAUAGCGCCAACGUCUUCAACCUCCAAUGCAUCCCACCACAUGAUGAUGCCUGAAUAGCCUUGGUUUUUUG [C80U G120U] | -0.245
4 | GACCAAUCUGCCCUCAGAGCUCGAGAACAUCUUCGGAUGCAGAGGAGGCAGGCUUCGGUGGCGCGAUAGCGCCAACGUCUUCAACCUCCAAUGCAUCCCACCACAUGAUGAUGCGUGAAGAGCCUUGGUUUUUUG [C80U C115G] | -0.729
5 | GACCAAUCUGCCCUCAGAGCUCGAGAACAUCUUCGGAUGCAGAGGAGGCAGGCUUCGGUGGCGCGAUAGCGCCAACGUCGUCAACCUCCAAUGCAUCCCACCACCUGAUGAUGCCAGAAGAGGCUUGGUUUUUUG [C80G A105C U116A C123G] | -7.31
6 | GACCAAUCUGCCCUCAGAGCUCGAGAACAUCUUCGGAUGCAGAGGAGGCAGGCUUCGGUGGCGCGAUAGCGCCAACGUCUUCAACCUCCAAUGCAUCCCAUCACAUGAUGAUGCCUGAAGAGCCUUGAUUUUUUG [C80U C101U G128A] | -2.13
7 | GACCAAUCUGCCCUCAGAGCUCGAGAACAUCUUCGGAUGCAGAGGAGGCAGGCUUCGGUGGCGCGAUAGCGCCAACGUCUUCAACCUCCAAUGCAUCCCACCACAUGAUGAUGGCUGAAGAGCCUUGGUUUUUUG [C80U C114G] | -3.48
8 | GACCAAUCUGCCCUCAGAGCUCGAGAACAUCUUCGGAUGCAGAGGAGGCAGGCUUCGGUGGCGCGAUAGCGCCAACGUUCUCAACCUCCAAUGCAUCCCACCACAUGAUGAUGCCUGAAGAGCCUUGGCUUUUUG [C79U U129C] | 0.161
9 | GACCAAUCUGCCCUCAGAGCUCGAGAACAUCUUCGGAUGCAGAGGAGGCAGGCUUCGGUGGCGCGAUAGCGCCAACGUCAUCAACCUCCAAUGCAUCCCACCACAUGAUGAUGCCUGAAGAGCAUUGGUUUUUUG [C80A C124A] | -0.56
10 | GACCAAUCUGCCCUCAGAGCUCGAGAACAUCUUCGGAUGCAGAGGAGGCAGGCUUCGGUGGCGCGAUAGCGCCAACGUCUUCAACCUCCAAUGUAUCCCACCACAUGAUGAUGCCUGAAGAGCCUUGGUUUUUUG [C80U C94U] | -0.851
11 | GACCAAUCUGCCCUCAGAGCUCGAGAACAUCUUCGGAUGCAGAGGAGGCAGGCUUCGGUGGCGCGAUAGCGCCAACGUCAUCAACCUCCAAUGCAUCCCACCACAUGAUGAUGCCUGAAGGGCCUUGGUUUUUUG [C80A A121G] | -2.89
12 | GACCAAUCUGCCCUCAGAGCUCGAGAACAUCUUCGGAUGCAGAGGAGGCAGGCUUCGGUGGCGCGAUAGCGCCAACGUCUUCAACCUCCAAUGCAUCCCACCACAUGAUGAUGCCUGAAUAGCCUUGGGUUUUUG [C80U G120U U129G] | -0.816
13 | GACCAAUCUGCCCUCAGAGCUCGAGAACAUCUUCGGAUGCAGAGGAGGCAGGCUUCGGUGGCGCGAUAGCGCCAACGUCCACAACCUCCAAUGCAUCCCACCACAUGAUGAUGCGUGAAGAGCCUUGGUUUUUUG [U81A C115G] | -2.4
14 | GACCAAUCUGCCCUCAGAGCUCGAGAACAUCUUCGGAUGCAGAGGAGGCAGGCUUCGGUGGCGCGAUAGCGCCAACGUCUUCAACCUCCAAUGCAUCCCACCACAUGAUGAUGCCUGAAGUGCCUUGGUUUUUUG [C80U A121U] | 1.34
15 | GACCAAUCUGCCCUCAGAGCUCGAGAACAUCUUCGGAUGCAGAGGAGGCAGGCUUCGGUGGCGCGAUAGCGCCAACGUCUUCAACCUCCAAUACAUCCCACCACAUGAUGAUGCCUGAAGAGCCUUGGUUUUUUG [C80U G93A] | -1.52
16 | GACCAAUCUGCCCUCAGAGCUCGAGAACAUCUUCGGAUGCAGAGGAGGCAGGCUUCGGUGGCGCGAUAGCGCCAACGUCUUCAACCUCCAAUGCAUCCCACCACAUGAUGAUGCCUGAAGAGACUUGGUUUUUUG [C80U C123A] | -0.37
17 | GACCAAUCUGCCCUCAGAGCUCGAGAACAUCUUCGGAUGCAGAGGAGGCAGGCUUCGGUGGCGCGAUAGCGCCAACGUUCUCAACCUCCAAUGCAUCCCACCACAUGAUGAUGCCUCAAGAGCCUUGGUUUUUUG [C79U G117C] | -3.9
18 | GACCAAUCUGCCCUCAGAGCUCGAGAACAUCUUCGGAUGCAGAGGAGGCAGGCUUCGGUGGCGCGAUAGCGCCAACGUCCACAACCUCCAAUGCAUCCCACCACAUGAUGAUGCCUGAAGCGCCUUGGUUUUUUG [U81A A121C] | 0.745
19 | GACCAAUCUGCCCUCAGAGCUCGAGAACAUCUUCGGAUGCAGAGGAGGCAGGCUUCGGUGGCGCGAUAGCGCCAACGUCGUCAACCUCCAAUGCAUCCCACCACAUGAUGAUGCCUGAAGAGCCUUUGUUUUUUG [C80G G127U] | -6.14
20 | GACCAAUCUGCCCUCAGAGCUCGAGAACAUCUUCGGAUGCAGAGGAGGCAGGCUUCGGUGGCGCGAUAGCGCCAACGUCUUCAACCUCCAAUGCAUCCCACCACAUGAUGAUGCCUGAAGAGCCUUGCUUUUUUG [C80U G128C] | -3.33
21 | GACCAAUCUGCCCUCAGAGCUCGAGAACAUCUUCGGAUGCAGAGGAGGCAGGCUUCGGUGGCGCGAUAGCGCCAACGUCGUCAACCUCCAAUGCAUCCCACCACAUGAUGAUGCCUGAAGAGCAUUGGUUUUUUG [C80G C124A] | -5.18

Row | Variant | polymerase ribozyme fitness (log ratio)
22 | GACCAAUCUGCCCUCAGAGCUCGAGAACAUCUUCGGAUGCAGAGGAGGCAGGCUUCGGUGGCGCGAUAGCGCCAACGUCUUCAACCUCCAAUGCAUCCCACCACAUGAUGAUGCCUGAAGAGCCUUGGUUUUUUU [C80U G135U] | -0.986
23 | GACCAAUCUGCCCUCAGAGCUCGAGAACAUCUUCGGAUGCAGAGGAGGCAGGCUUCGGUGGCGCGAUAGCGCCAACGUCCACAACCUCCAAUGCAUCCCACCACAUGAUGAUGCCUGAAAAGCCUUGGUUUUUUG [U81A G120A] | -0.668
24 | GACCAAUCUGCCCUCAGAGCUCGAGAACAUCUUCGGAUGCAGAGGAGGCAGGCUUCGGUGGCGCGAUAGCGCCAACGUCAUCAACCUCCAAUGCAUCCCACCACAUGAUGAUGCCUGAAGAGUCUUGGUUUUUUG [C80A C123U] | -2.06
25 | GACCAAUCUGCCCUCAGAGCUCGAGAACAUCUUCGGAUGCAGAGGAGGCAGGCUUCGGUGGCGCGAUAGCGCCAACGUCAUCAACCUCCAAUGCAUCCCACCACAUGAUGAUACCUGAAGAGCCUUGGUUUUUUA [C80A G113A G135A] | -3.66
26 | GACCAAUCUGCCCUCAGAGCUCGAGAACAUCUUCGGAUGCAGAGGAGGCAGGCUUCGGUGGCGCGAUAGCGCCAACGUCUUCAACCUCCAAUGCAUCCCACCACAUGAUGAUUCCUGAAGAGCCUUGGUUUUUUG [C80U G113U] | -3.41
27 | GACCAAUCUGCCCUCAGAGCUCGAGAACAUCUUCGGAUGCAGAGGAGGCAGGCUUCGGUGGCGCGAUAGCGCCAACGUUCUCAACCUCCAAUGCAUCCCACCACAUGAUGAUGACUGAAGAGCCUUGGUUUUUUG [C79U C114A] | -0.742
28 | GACCAAUCUGCCCUCAGAGCUCGAGAACAUCUUCGGAUGCAGAGGAGGCAGGCUUCGGUGGCGCGAUAGCGCCAACGUCAUCAACCUCCAAUGCAUCCCACCACAUGAUGAUGCCUAAAGAGCCUUGGUUUUUUG [C80A G117A] | -4.27
29 | GACCAAUCUGCCCUCAGAGCUCGAGAACAUCUUCGGAUGCAGAGGAGGCAGGCUUCGGUGGCGCGAUAGCGCCAACGUCAUCAACCUCCAAUGCACCCCACCACAUGAUGAUGCCUGAAGAGCCUUGGUUUUUUG [C80A U96C] | -3.2
30 | GACCAAUCUGCCCUCAGAGCUCGAGAACAUCUUCGGAUGCAGAGGAGGCAGGCUUCGGUGGCGCGAUAGCGCCAACGUUCUCAACCUCCAAUGCAUCCCACUACAUGAUGAUGCCUAAAGAGCCUUGGUUUUUUG [C79U C102U G117A] | -3.4
31 | GACCAAUCUGCCCUCAGAGCUCGAGAACAUCUUCGGAUGCAGAGGAGGCAGGCUUCGGUGGCGCGAUAGCGCCAACGUCCACAACCUCUAAUGCAUCCCACCACAUGAUGAUGCCUGAAGAGCCUUGGUUUUUUG [U81A C89U] | -0.112
32 | GACCAAUCUGCCCUCAGAGCUCGAGAACAUCUUCGGAUGCAGAGGAGGCAGGCUUCGGUGGCGCGAUAGCGCCAACGUCUUCAACCUCCAAUGCAUCCCACCACAUGAUGAUGCCUGAACAGCCUUCGUUUUUUG [C80U G120C G127C] | -0.289
33 | GACCAAUCUGCCCUCAGAGCUCGAGAACAUCUUCGGAUGCAGAGGAGGCAGGCUUCGGUGGCGCGAUAGCGCCAACGUCCACAACCUCCAAUGCAUCCCACCACAUGAUGAUCCCUGAAGAGCCUUGGUGUAUUG [U81A G113C U130G U132A] | -3.31
34 | GACCAAUCUGCCCUCAGAGCUCGAGAACAUCUUCGGAUGCAGAGGAGGCAGGCUUCGGUGGCGCGAUAGCGCCAACGUCUUCAACCUUCAAUGCAUCCCACCACAUGAUGGUGACUGAAGAGCCUUGGUUUUUUG [C80U C88U A111G C114A] | -4.84
35 | GACCAAUCUGCCCUCAGAGCUCGAGAACAUCUUCGGAUGCAGAGGAGGCAGGCUUCGGUGGCGCGAUAGCGCCAACGUUCUCAACCUCCAAUGCAUCCCACCACAUGAUCAUGCCUGAAGAGCCUUGGUUUUUUG [C79U G110C] | -2.71
36 | GACCAAUCUGCCCUCAGAGCUCGAGAACAUCUUCGGAUGCAGAGGAGGCAGGCUUCGGUGGCGCGAUAGCGCCAACGUCCACAACCUCCAUUGCAUCCCAUCACAUGAUGAUGCCUGAAGAGCCUUGGUUUUUUG [U81A A91U C101U] | -3.43
37 | GACCAAUCUGCCCUCAGAGCUCGAGAACAUCUUCGGAUGCAGAGGAGGCAGGCUUCGGUGGCGCGAUAGCGCCAACGUCCACAACCUCCCACGCAUCCCACCACAUGAUGAUGCCUGAAGAGCCUUGGUUUUUUG [U81A A90C U92C] | -4.05
38 | GACCAAUCUGCCCUCAGAGCUCGAGAACAUCUUCGGAUGCAGAGGAGGCAGGCUUCGGUGGCGCGAUAGCGCCAACGUCGUCAACCUCCAAUGCAUCCCACCAUAUGAUGAUGCCUGAAGAGCCUUGGUUUUUUG [C80G C104U] | -5.71
39 | GACCAAUCUGCCCUCAGAGCUCGAGAACAUCUUCGGAUGCAGAGGAGGCAGGCUUCGGUGGCGCGAUAGCGCCAACGUCUUCAACCUGCAAUGCAUCCCACCACAUGAUGAUGCCUGAAGAGCCUUGGUUUUUUG [C80U C88G] | -1.25
40 | GACCAAUCUGCCCUCAGAGCUCGAGAACAUCUUCGGAUGCAGAGGAGGCAGGCUUCGGUGGCGCGAUAGCGCCAACGUCAUCAACCUCCAAUGCUUCCCACCACAUGAUGAUGCCUGAAAAGCCUUGGUGUUUUG [C80A A95U G120A U130G] | -3.52
41 | GACCAAUCUGCCCUCAGAGCUCGAGAACAUCUUCGGAUGCAGAGGAGGCAGGCUUCGGUGGCGCGAUAGCGCCAACGUCUUCAACCUCCAAUGCAUCCCAUCACAUGAUGUUGCCAGAAGAGCCUUGGUUUUUUG [C80U C101U A111U U116A] | -4.81
42 | GACCAAUCUGCCCUCAGAGCUCGAGAACAUCUUCGGAUGCAGAGGAGGCAGGCUUCGGUGGCGCGAUAGCGCCAACGUCCACAACCUCCAAUGCAUCCCACCACUUGAUGAUGCCUGAAGAGCCUUGGUUUCUUG [U81A A105U U132C] | -2.04
